What follows are sequences tested on Escherichia coli TOP10 (assay: shrunken log2 fold change of peptide-encoding DNA abundance (4.5 h post-induction vs induction); higher = less antimicrobial activity (less host growth inhibition)). Conditions: time post-induction: 4.5 h; library: site-saturation at positions 5, 18, 19, 20.
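Also: peptides expressed intracellularly from a pBAD plasmid library in pooled LB shake-flask culture, induced with 0.3% L-arabinose, DNA abundance read by NGS, three biological replicates, DESeq2 with apeglm shrinkage.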

Sequence | shrunken log2 fold change
RRIRSRPPRLPRPRPRPGRDPRP | 0.255
RRIRPRPPRLPRPRPRPQIAPRP | 0.115
RRIRMRPPRLPRPRPRPGAAPRP | 2.24
RRIRMRPPRLPRPRPRPSNQPRP | -0.0365
RRIRFRPPRLPRPRPRPGAVPRP | 0.223
RRIRVRPPRLPRPRPRPGPRPRP | 0.791
RRIRWRPPRLPRPRPRPFNEPRP | -0.69
RRIRQRPPRLPRPRPRPVAFPRP | -0.0706
RRIRNRPPRLPRPRPRPLYNPRP | -0.0372
RRIRARPPRLPRPRPRPQGQPRP | -0.2
RRIRPRPPRLPRPRPRPWQLPRP | 0.224
RRIRGRPPRLPRPRPRPRHSPRP | 0.242
RRIRYRPPRLPRPRPRPIVYPRP | -1.23
RRIRPRPPRLPRPRPRPCNQPRP | -0.0514
RRIRVRPPRLPRPRPRPYYFPRP | -0.777
RRIRCRPPRLPRPRPRPENSPRP | -0.0484
RRIRYRPPRLPRPRPRPNCHPRP | -0.507
RRIRNRPPRLPRPRPRPGANPRP | -0.151
RRIRRRPPRLPRPRPRPTGMPRP | 0.906
RRIRRRPPRLPRPRPRPTGCPRP | 0.0105
RRIRHRPPRLPRPRPRPTYWPRP | 0.293
RRIRCRPPRLPRPRPRPLIHPRP | -0.842
RRIRYRPPRLPRPRPRPMHIPRP | -0.0235
RRIRMRPPRLPRPRPRPPEFPRP | 1.05
RRIRFRPPRLPRPRPRPARVPRP | 0.319

Sequence | shrunken log2 fold change
RRIRYRPPRLPRPRPRPVWDPRP | -0.0448
RRIRKRPPRLPRPRPRPYDPPRP | 0.0113
RRIRVRPPRLPRPRPRPHNKPRP | -0.63
RRIRWRPPRLPRPRPRPLNHPRP | -0.176
RRIRQRPPRLPRPRPRPQVPPRP | -0.148
RRIRNRPPRLPRPRPRPGKGPRP | 0.101
RRIRFRPPRLPRPRPRPWCEPRP | -0.429
RRIRLRPPRLPRPRPRPAPDPRP | 0.215
RRIRFRPPRLPRPRPRPLAHPRP | -0.13
RRIRCRPPRLPRPRPRPYQYPRP | -0.399
RRIRDRPPRLPRPRPRPEYVPRP | -0.00373
RRIRGRPPRLPRPRPRPPVRPRP | 0.859
RRIRRRPPRLPRPRPRPVQAPRP | 0.464
RRIRVRPPRLPRPRPRPTYIPRP | -0.51
RRIRWRPPRLPRPRPRPFANPRP | -0.0747
RRIRIRPPRLPRPRPRPHQGPRP | -0.117
RRIRSRPPRLPRPRPRPGYYPRP | -0.457
RRIRYRPPRLPRPRPRPVMHPRP | -0.338
RRIRERPPRLPRPRPRPFGAPRP | 0.143
RRIRMRPPRLPRPRPRPWFYPRP | -0.418
RRIRDRPPRLPRPRPRPMCNPRP | -0.0221
RRIRVRPPRLPRPRPRPLNNPRP | -0.733
RRIRNRPPRLPRPRPRPPAVPRP | 0.387
RRIRGRPPRLPRPRPRPARAPRP | 1.03
RRIRARPPRLPRPRPRPDLRPRP | 0.0309

Sequence | shrunken log2 fold change
RRIRQRPPRLPRPRPRPMEHPRP | 0.0112
RRIRTRPPRLPRPRPRPQYTPRP | -0.697
RRIRQRPPRLPRPRPRPNSNPRP | -0.648
RRIRFRPPRLPRPRPRPFLNPRP | -0.484
RRIRLRPPRLPRPRPRPAMNPRP | -0.397
RRIRPRPPRLPRPRPRPEITPRP | 0.175
RRIRGRPPRLPRPRPRPLKQPRP | -0.115
RRIRVRPPRLPRPRPRPWRMPRP | 0.077
RRIRYRPPRLPRPRPRPDPSPRP | -0.566
RRIRRRPPRLPRPRPRPQGTPRP | 0.294
RRIRFRPPRLPRPRPRPYIYPRP | -0.0532
RRIRHRPPRLPRPRPRPVRDPRP | 0.298
RRIRYRPPRLPRPRPRPTEGPRP | -0.96
RRIRMRPPRLPRPRPRPDLDPRP | 2.65
RRIRHRPPRLPRPRPRPADLPRP | -0.0314
RRIRHRPPRLPRPRPRPFGMPRP | -0.0621
RRIRCRPPRLPRPRPRPALYPRP | -0.0755
RRIRHRPPRLPRPRPRPDYEPRP | 0.00408
RRIRMRPPRLPRPRPRPGNMPRP | -0.331
RRIRARPPRLPRPRPRPGDRPRP | -0.00146
RRIRFRPPRLPRPRPRPVKAPRP | 0.0979
RRIRPRPPRLPRPRPRPNQEPRP | 0.0875
RRIRSRPPRLPRPRPRPQPLPRP | 0.256
RRIRIRPPRLPRPRPRPQKFPRP | -0.0902
RRIRLRPPRLPRPRPRPHSYPRP | -0.0533

Sequence | shrunken log2 fold change
RRIRCRPPRLPRPRPRPYCDPRP | -0.623
RRIRKRPPRLPRPRPRPTWYPRP | -0.0991
RRIRDRPPRLPRPRPRPIRAPRP | 0.0872
RRIRIRPPRLPRPRPRPIRYPRP | -0.125
RRIRMRPPRLPRPRPRPSMAPRP | 0.925
RRIRNRPPRLPRPRPRPGPTPRP | 0.3
RRIRQRPPRLPRPRPRPGGCPRP | 0.546
RRIRSRPPRLPRPRPRPEVAPRP | 0.102
RRIRNRPPRLPRPRPRPHVDPRP | 0.00884
RRIRNRPPRLPRPRPRPEFFPRP | -0.064
RRIRMRPPRLPRPRPRPNCHPRP | 0.0305
RRIRARPPRLPRPRPRPVFLPRP | 1.14
RRIRIRPPRLPRPRPRPWIPPRP | -0.562
RRIRKRPPRLPRPRPRPHQIPRP | 0.0638
RRIRGRPPRLPRPRPRPAQTPRP | 0.221
RRIRNRPPRLPRPRPRPTQLPRP | -0.0336
RRIRTRPPRLPRPRPRPTFMPRP | -0.191
RRIRLRPPRLPRPRPRPDHMPRP | -0.0422
RRIRKRPPRLPRPRPRPKIKPRP | 0.447
RRIRRRPPRLPRPRPRPTPCPRP | 0.774
RRIRTRPPRLPRPRPRPEVFPRP | 0.146
RRIRVRPPRLPRPRPRPPESPRP | 0.201
RRIRARPPRLPRPRPRPPRGPRP | 0.833
RRIRKRPPRLPRPRPRPPDKPRP | 0.474
RRIRCRPPRLPRPRPRPAHWPRP | 0.337

Sequence | shrunken log2 fold change
RRIRTRPPRLPRPRPRPPEWPRP | 0.442
RRIRWRPPRLPRPRPRPRPQPRP | 0.588
RRIRMRPPRLPRPRPRPRFPPRP | 0.573
RRIRFRPPRLPRPRPRPLFFPRP | -0.259
RRIRNRPPRLPRPRPRPHTYPRP | -0.501
RRIRSRPPRLPRPRPRPPNIPRP | -0.251
RRIRPRPPRLPRPRPRPMMCPRP | -0.147
RRIRLRPPRLPRPRPRPIDNPRP | -0.421
RRIRDRPPRLPRPRPRPTELPRP | 0.103
RRIRIRPPRLPRPRPRPPFCPRP | -0.256
RRIRNRPPRLPRPRPRPNEVPRP | -0.0252
RRIRNRPPRLPRPRPRPNEPPRP | -0.000856
RRIRPRPPRLPRPRPRPDIVPRP | -0.0822
RRIRNRPPRLPRPRPRPTFEPRP | -0.0715
RRIRLRPPRLPRPRPRPEKGPRP | 0.693
RRIRIRPPRLPRPRPRPRFRPRP | 0.0756
RRIRMRPPRLPRPRPRPRMFPRP | 0.154
RRIRYRPPRLPRPRPRPCFGPRP | -0.0967
RRIRRRPPRLPRPRPRPDTNPRP | 1.31
RRIRARPPRLPRPRPRPCRCPRP | 0.0187
RRIRIRPPRLPRPRPRPDVTPRP | -0.0322
RRIRIRPPRLPRPRPRPVRLPRP | 0.499
RRIRVRPPRLPRPRPRPACWPRP | 0.517
RRIRNRPPRLPRPRPRPDPSPRP | 0.152
RRIRGRPPRLPRPRPRPNITPRP | 0.315

Sequence | shrunken log2 fold change
RRIRIRPPRLPRPRPRPENDPRP | -0.312
RRIRPRPPRLPRPRPRPHKHPRP | -0.268
RRIRWRPPRLPRPRPRPFCVPRP | -0.0188
RRIRPRPPRLPRPRPRPNLNPRP | -0.369
RRIRNRPPRLPRPRPRPQWHPRP | -0.481
RRIRPRPPRLPRPRPRPQSLPRP | -0.288
RRIRARPPRLPRPRPRPDRLPRP | -0.0424
RRIRARPPRLPRPRPRPTHEPRP | 0.622
RRIRMRPPRLPRPRPRPGRIPRP | 0.0372
RRIRWRPPRLPRPRPRPPGHPRP | 0.403
RRIRLRPPRLPRPRPRPMRIPRP | 0.269
RRIRGRPPRLPRPRPRPAEQPRP | 1.25
RRIRQRPPRLPRPRPRPWSDPRP | -0.276
RRIRQRPPRLPRPRPRPRQLPRP | 0.0166
RRIRDRPPRLPRPRPRPDTYPRP | -0.0814
RRIRARPPRLPRPRPRPWLCPRP | 0.116
RRIRSRPPRLPRPRPRPMIGPRP | 0.0355
RRIRYRPPRLPRPRPRPPPNPRP | 0.873
RRIRMRPPRLPRPRPRPADGPRP | 0.19
RRIRARPPRLPRPRPRPNWKPRP | -0.0233
RRIRTRPPRLPRPRPRPKKKPRP | -0.125
RRIRRRPPRLPRPRPRPEICPRP | 0.181
RRIRMRPPRLPRPRPRPTQGPRP | 0.805
RRIRKRPPRLPRPRPRPQQWPRP | 0.105
RRIRHRPPRLPRPRPRPRRFPRP | 0.379

From the supplement of paper PMC9112550, “Optimization of the antimicrobial peptide Bac7 by deep mutational scanning” (BMC Biology, 2022)
